Substrate in the data set: Nc1ncnc2c1ncn2[C@@H]1O[C@H](COP(=O)(O)OP(=O)(O)OP(=O)(O)O)[C@@H](O)[C@H]1O
The data set is described as follows: malachite green ATP hydrolysis assay, Michaelis-Menten Km. The data set is classed as biochemical, Homo sapiens. The following applies: Mg2+ N-terminal ATPase site.

From PMC3229241, “Neoamphimedine Circumvents Metnase-Enhanced DNA Topoisomerase IIα Activity Through ATP-Competitive Inhibition” (2011) come the findings set out here.

B1: Type IIα DNA topoisomerase (TopoIIα) (Homo sapiens) (protein)
chain: MEVSPLQPVNENMQVNKIKKNEDAKKRLSVERIYQKKTQLEHILLRPDTYIGSVELVTQQMWVYDEDVGINYREVTFVPGLYKIFDEILVNAADNKQRDPKMSCIRVTIDPENNLISIWNNGKGIPVVEHKVEKMYVPALIFGQLLTSSNYDDDEKKVTGGRNGYGAKLCNIFSTKFTVETASREYKKMFKQTWMDNMGRAGEMELKPFNGEDYTCITFQPDLSKFKMQSLDKDIVALMVRRAYDIAGSTKDVKVFLNGNKLPVKGFRSYVDMYLKDKLDETGNSLKVIHEQVNHRWEVCLTMSEKGFQQISFVNSIATSKGGRHVDYVADQIVTKLVDVVKKKNKGGVAVKAHQVKNHMWIFVNALIENPTFDSQTKENMTLQPKSFGSTCQLSEKFIKAAIGCGIVESILNWVKFKAQVQLNKKCSAVKHNRIKGIPKLDDANDAGGRNSTECTLILTEGDSAKTLAVSGLGVVGRDKYGVFPLRGKILNVREASHKQIMENAEINNIIKIVGLQYKKNYEDEDSLKTLRYGKIMIMTDQDQDGSHIKGLLINFIHHNWPSLLRHRFLEEFITPIVKVSKNKQEMAFYSLPEFEEWKSSTPNHKKWKVKYYKGLGTSTSKEAKEYFADMKRHRIQFKYSGPEDDAAISLAFSKKQIDDRKEWLTNFMEDRRQRKLLGLPEDYLYGQTTTYLTYNDFINKELILFSNSDNERSIPSMVDGLKPGQRKVLFTCFKRNDKREVKVAQLAGSVAEMSSYHHGEMSLMMTIINLAQNFVGSNNLNLLQPIGQFGTRLHGGKDSASPRYIFTMLSSLARLLFPPKDDHTLKFLYDDNQRVEPEWYIPIIPMVLINGAEGIGTGWSCKIPNFDVREIVNNIRRLMDGEEPLPMLPSYKNFKGTIEELAPNQYVISGEVAILNSTTIEISELPVRTWTQTYKEQVLEPMLNGTEKTPPLITDYREYHTDTTVKFVVKMTEEKLAEAERVGLHKVFKLQTSLTCNSMVLFDHVGCLKKYDTVLDILRDFFELRLKYYGLRKEWLLGMLGAESAKLNNQARFILEKIDGKIIIENKPKKELIKVLIQRGYDSDPVKAWKEAQQKVPDEEENEESDNEKETEKSDSVTDSGPTFNYLLDMPLWYLTKEKKDELCRLRNEKEQELDTLKRKSPSDLWKEDLATFIEELEAVEAKEKQDEQVGLPGKGGKAKGKKTQMAEVLPSPRGQRVIPRITIEMKAEAEKKNKKKIKNENTEGSPQEDGVELEGLKQRLEKKQKREPGTKTKKQTTLAFKPIKKGKKRNPWSDSESDRSSDESNFDVPPRETEPRRAATKTKFTMDLDSDEDFSDFDEKTDDEDFVPSDASPPKTKTSPKLSNKELKPQKSVVSDLEADDVKGSVPLSSSPPATHFPDETEITNPVPKKNVTVKKTAAKSQSSTSTTGAKKRAAPKGTKRDPALNSGVSQKPDPAKTKNRRKRKPSTSDDSDSNFEKIVSKAVTSKKSKGESDDFHMDFDSAVAPRAKSVRAKKPIKYLEESDEDDLF
notes: recombinant human TopoIIα
Take B1: the Km is 390 ± 50 µM.

The term Km denotes the concentration of substrate that gives half-maximal velocity.
